B1: STK38L (parent)
chain: FLPGGDMMTLLMKKDTLTEEETQF

Variants of: B1
Experiment: protein stability index of a GFP-peptide fusion (GPS, HEK-293T) (PSI 1-6); higher = more stable
Settings: c terminus: a fixed tail appended
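Also: lentivirally expressed fusions sorted by FACS into six bins by GFP to DsRed ratio, PSI derived from sequencing read proportions per bin multiplied by bin number.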

In order of rising protein stability index:
1. FLSGGDMMTLLMKKDTLTEEETQF  1.4
2. FLPGGDMWTLLMKKDTLTEEETQF  1.44
3. FLAGGDMMTLLMKKDTLTEEETQF  1.66
4. FLYGGDMMTLLMKKDTLTEEETQF  1.68
5. FLPWGDMMTLLMKKDTLTEEETQF  1.82
6. FLPGGDMFTLLMKKDTLTEEETQF  1.84
7. FLLGGDMMTLLMKKDTLTEEETQF  1.86
8. FLNGGDMMTLLMKKDTLTEEETQF  1.89
9. FLPGGDMYTLLMKKDTLTEEETQF  1.94
10. FLHGGDMMTLLMKKDTLTEEETQF  1.98
11. FLPGGDMLTLLMKKDTLTEEETQF  2.06
12. FLPGGDIMTLLMKKDTLTEEETQF  2.08
13. FLVGGDMMTLLMKKDTLTEEETQF  2.08
14. FLDGGDMMTLLMKKDTLTEEETQF  2.12
15. FLCGGDMMTLLMKKDTLTEEETQF  2.17
16. FLMGGDMMTLLMKKDTLTEEETQF  2.18
17. FLFGGDMMTLLMKKDTLTEEETQF  2.22
18. FLPGGDMITLLMKKDTLTEEETQF  2.22
19. FLPGGDFMTLLMKKDTLTEEETQF  2.23
20. FLTGGDMMTLLMKKDTLTEEETQF  2.23
21. FLPYGDMMTLLMKKDTLTEEETQF  2.29
22. FLQGGDMMTLLMKKDTLTEEETQF  2.31
23. FLIGGDMMTLLMKKDTLTEEETQF  2.31
24. FLEGGDMMTLLMKKDTLTEEETQF  2.32
25. FLPMGDMMTLLMKKDTLTEEETQF  2.35
26. FLPIGDMMTLLMKKDTLTEEETQF  2.35
27. FLPFGDMMTLLMKKDTLTEEETQF  2.41
28. FLPLGDMMTLLMKKDTLTEEETQF  2.42
29. FLPGGDLMTLLMKKDTLTEEETQF  2.43
30. FLPGGDMVTLLMKKDTLTEEETQF  2.54
31. FLWGGDMMTLLMKKDTLTEEETQF  2.55
32. FLPSGDMMTLLMKKDTLTEEETQF  2.61
33. FLPGADMMTLLMKKDTLTEEETQF  2.63
34. FLPGYDMMTLLMKKDTLTEEETQF  2.63
35. FLPGIDMMTLLMKKDTLTEEETQF  2.63
36. FLPGGDCMTLLMKKDTLTEEETQF  2.63
37. FLPGQDMMTLLMKKDTLTEEETQF  2.72
38. FLPGHDMMTLLMKKDTLTEEETQF  2.75
39. FLPNGDMMTLLMKKDTLTEEETQF  2.76
40. FLRGGDMMTLLMKKDTLTEEETQF  2.76
41. FLPAGDMMTLLMKKDTLTEEETQF  2.78
42. FLPGVDMMTLLMKKDTLTEEETQF  2.79
43. FLPGGDYMTLLMKKDTLTEEETQF  2.81
44. FLPGFDMMTLLMKKDTLTEEETQF  2.84
45. FLPGGDVMTLLMKKDTLTEEETQF  2.85
46. FLKGGDMMTLLMKKDTLTEEETQF  2.91
47. FLPGPDMMTLLMKKDTLTEEETQF  2.94
48. FLPGCDMMTLLMKKDTLTEEETQF  2.94
49. FLGGGDMMTLLMKKDTLTEEETQF  2.96
50. FLPGRDMMTLLMKKDTLTEEETQF  3
51. FLPGLDMMTLLMKKDTLTEEETQF  3.01
52. FLPGGDNMTLLMKKDTLTEEETQF  3.05
53. FLPCGDMMTLLMKKDTLTEEETQF  3.09
54. FLPGNDMMTLLMKKDTLTEEETQF  3.13
55. FLPGMDMMTLLMKKDTLTEEETQF  3.13
56. FLPGGDGMTLLMKKDTLTEEETQF  3.16
57. FLPGSDMMTLLMKKDTLTEEETQF  3.21
58. FLPRGDMMTLLMKKDTLTEEETQF  3.26
59. FLPKGDMMTLLMKKDTLTEEETQF  3.27
60. FLPHGDMMTLLMKKDTLTEEETQF  3.29
61. FLPGGDMCTLLMKKDTLTEEETQF  3.33
62. FLPTGDMMTLLMKKDTLTEEETQF  3.34
63. FLPGGDMQTLLMKKDTLTEEETQF  3.35
64. FLPQGDMMTLLMKKDTLTEEETQF  3.36
65. FLPGGDMRTLLMKKDTLTEEETQF  3.36
66. FLPVGDMMTLLMKKDTLTEEETQF  3.39
67. FLPGTDMMTLLMKKDTLTEEETQF  3.44
68. FLPGGDKMTLLMKKDTLTEEETQF  3.55
69. FLPEGDMMTLLMKKDTLTEEETQF  3.57
70. FLPGGDRMTLLMKKDTLTEEETQF  3.61
71. FLPGGDQMTLLMKKDTLTEEETQF  3.65
72. FLPGGDMKTLLMKKDTLTEEETQF  3.66
73. FLPGGDPMTLLMKKDTLTEEETQF  3.67
74. FLPGEDMMTLLMKKDTLTEEETQF  3.72
75. FLPGGDHMTLLMKKDTLTEEETQF  3.72
76. FLPGGDMATLLMKKDTLTEEETQF  3.75
77. FLPGGDMGTLLMKKDTLTEEETQF  3.76
78. FLPGGDMPTLLMKKDTLTEEETQF  3.82
79. FLPDGDMMTLLMKKDTLTEEETQF  3.84
80. FLPGGDTMTLLMKKDTLTEEETQF  3.87
81. FLPGGDSMTLLMKKDTLTEEETQF  3.9
82. FLPPGDMMTLLMKKDTLTEEETQF  3.95
83. FLPGGDMHTLLMKKDTLTEEETQF  3.95
84. FLPGGDMSTLLMKKDTLTEEETQF  4.02
85. FLPGGDAMTLLMKKDTLTEEETQF  4.11
86. FLPGGDMNTLLMKKDTLTEEETQF  4.12
87. FLPGKDMMTLLMKKDTLTEEETQF  4.21
88. FLPGGDMETLLMKKDTLTEEETQF  4.21
89. FLPGDDMMTLLMKKDTLTEEETQF  4.23
90. FLPGGDMTTLLMKKDTLTEEETQF  4.3
91. CLPGGDMMTLLMKKDTLTEEETQF  4.39
92. FLPGGDEMTLLMKKDTLTEEETQF  4.77
93. FLPGGDMDTLLMKKDTLTEEETQF  4.8
94. FLPGGDDMTLLMKKDTLTEEETQF  4.85
